Results on one molecule are retold here after patent CN107987163A (HANGZHOU SHANGJIAN BIOTECHNOLOGY CO LTD, dated 2018).

One assay deals with BSA (BOVOGEN) (UniProt P02769 25-607). Put plainly: ELISA, protein coated at 1μg/ml, goat anti-human IgG-HRP detection. On the technique in general: In an ELISA, binding on a coated surface is turned into a signal by an enzyme label.
Assay [1] has as its target T1, AXL-Fc (人AXL蛋白胞外段-人IgG1Fc段融合蛋白) (human, UniProt P30530 26-451).
T1 construct: extracellular domain; Expressed in CHO-K1 cells; also called 靶抗原AXL-Fc; 抗原AXL-Fc
T1 sequence (looked up): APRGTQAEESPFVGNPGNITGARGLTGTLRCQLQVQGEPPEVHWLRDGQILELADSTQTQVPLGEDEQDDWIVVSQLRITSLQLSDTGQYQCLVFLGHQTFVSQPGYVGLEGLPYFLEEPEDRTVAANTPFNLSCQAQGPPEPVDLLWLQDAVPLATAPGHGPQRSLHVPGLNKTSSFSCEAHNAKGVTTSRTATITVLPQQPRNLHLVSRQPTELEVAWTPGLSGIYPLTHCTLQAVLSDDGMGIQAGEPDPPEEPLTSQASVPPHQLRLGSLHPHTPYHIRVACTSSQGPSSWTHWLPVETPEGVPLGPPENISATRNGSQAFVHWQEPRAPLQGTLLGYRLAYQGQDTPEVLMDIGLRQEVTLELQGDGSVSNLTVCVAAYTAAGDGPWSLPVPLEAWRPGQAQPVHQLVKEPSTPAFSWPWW
Put plainly: ELISA, AXL-Fc coated at 1μg/ml, antibody titrated, goat anti-human IgG (Fab')2-HRP detection.

Assay [2] has as its target T2, A549细胞表面AXL (AXL on the surface of A549 cells) (UniProt P30530 26-894, limits assumed).
T2 construct: whole, on cells; also called 细胞表面抗原
T2 sequence (looked up): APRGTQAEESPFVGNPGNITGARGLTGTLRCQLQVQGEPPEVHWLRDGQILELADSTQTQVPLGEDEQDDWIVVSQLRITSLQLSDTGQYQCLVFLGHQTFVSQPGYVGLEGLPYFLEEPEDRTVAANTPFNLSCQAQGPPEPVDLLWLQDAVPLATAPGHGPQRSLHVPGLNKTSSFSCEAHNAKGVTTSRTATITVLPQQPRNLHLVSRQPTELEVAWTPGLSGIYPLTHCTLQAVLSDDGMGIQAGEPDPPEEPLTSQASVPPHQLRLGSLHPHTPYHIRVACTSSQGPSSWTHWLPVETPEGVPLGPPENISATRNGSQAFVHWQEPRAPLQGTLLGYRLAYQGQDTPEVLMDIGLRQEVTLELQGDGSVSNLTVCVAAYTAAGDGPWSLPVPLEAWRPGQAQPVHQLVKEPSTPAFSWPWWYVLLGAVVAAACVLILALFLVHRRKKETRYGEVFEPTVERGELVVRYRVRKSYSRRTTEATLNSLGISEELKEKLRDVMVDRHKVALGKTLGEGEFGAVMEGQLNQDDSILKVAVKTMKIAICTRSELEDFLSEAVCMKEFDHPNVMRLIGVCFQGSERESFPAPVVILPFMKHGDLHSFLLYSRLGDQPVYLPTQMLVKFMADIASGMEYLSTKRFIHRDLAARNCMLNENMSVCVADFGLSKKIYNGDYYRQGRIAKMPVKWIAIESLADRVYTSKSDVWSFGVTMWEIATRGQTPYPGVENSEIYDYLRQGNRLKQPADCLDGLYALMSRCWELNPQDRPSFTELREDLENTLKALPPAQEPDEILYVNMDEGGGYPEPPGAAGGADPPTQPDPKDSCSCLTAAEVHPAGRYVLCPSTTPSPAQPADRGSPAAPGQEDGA
Put plainly: flow cytometry on A549 cells, 9A diluted to 20μg/ml, PE mouse anti-human IgG detection.

BSA (BOVOGEN), sequence (P02769 25-607 limits assumed): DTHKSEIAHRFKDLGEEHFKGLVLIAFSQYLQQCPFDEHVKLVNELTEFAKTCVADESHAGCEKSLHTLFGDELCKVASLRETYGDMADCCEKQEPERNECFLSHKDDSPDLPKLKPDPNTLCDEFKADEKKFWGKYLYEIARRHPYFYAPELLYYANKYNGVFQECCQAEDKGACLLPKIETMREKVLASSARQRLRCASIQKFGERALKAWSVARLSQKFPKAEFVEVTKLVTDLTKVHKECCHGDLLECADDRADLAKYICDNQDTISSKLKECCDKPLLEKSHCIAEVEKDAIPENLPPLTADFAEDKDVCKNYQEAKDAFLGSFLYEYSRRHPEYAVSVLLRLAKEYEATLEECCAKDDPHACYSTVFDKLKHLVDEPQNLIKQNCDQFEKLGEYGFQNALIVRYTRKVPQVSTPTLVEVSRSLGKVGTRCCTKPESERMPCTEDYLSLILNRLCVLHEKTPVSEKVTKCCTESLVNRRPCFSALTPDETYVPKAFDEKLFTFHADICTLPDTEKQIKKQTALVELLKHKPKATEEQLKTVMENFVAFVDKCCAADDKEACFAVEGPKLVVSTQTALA

B1: 9A抗体 (full antibody 9A, anti-AXL monoclonal antibody) (antibody, human IgG1, kappa, V domains shown)
VH: QVQLVQSGAEVKKPGSSVKVSCKASGGTFSSYAISWVRQAPGQGLEWMGGIIPIFGTANYAQKFQGRATITADESTSTAYMELSSLRSEDTAVYYCARAYYDFWSGYEPWGQGTLVTVSS
VL: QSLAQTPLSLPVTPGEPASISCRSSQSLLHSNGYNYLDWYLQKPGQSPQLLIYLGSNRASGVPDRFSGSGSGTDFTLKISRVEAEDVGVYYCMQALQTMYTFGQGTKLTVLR
notes: also called 单克隆抗体9A; 全抗体
Take B1: the results for the binding result (with BSA (BOVOGEN); in assay [1]; in assay [2]) were “no binding”, “binds” and “binds”, respectively.
